In patent publication US20150274799A1, “GLP-1 ANALOGUE, ITS PREPARATION METHODS AND USE THEREOF” (TIANJIN INSTITUTE OF PHARMACEUTICAL RESEARCH, priority 2011, published 2015):
Ends that are not written are not given here.

How the values were obtained:
[1] = in vivo; cited from earlier work
[2] = cited from earlier work

Substance | half-life in human serum | half-life of GLP-1 administered alone [1] | serum half-life [2]
^7HAEGT FTSDVSSYLEGQAAKEFICWLCKGRG^37GG C GGGGG GGGGGGGGGG (HAEGTFTSDVSSYLEGQAAKEFICWLCKGRGGGCGGGGGGGGGGGGGGG; disulfide (positions not given here); also: contains disulfide bonds, places not given here (three Cys)) [SEQ ID NO 59] | > 24 h |  | 
^7HAEGT FTSDVSSYLEGQAAKEFICWLCKGRG^37GG C GGGGG GGGGG (HAEGTFTSDVSSYLEGQAAKEFICWLCKGRGGGCGGGGGGGGGG; disulfide (positions not given here); also: contains disulfide bonds, places not given here (three Cys)) [SEQ ID NO 58] | > 24 h |  | 
HAEGTFTSDVSSYLEGQAAKEFIAWLVKGRG [GLP-1] |  | 3 to 5 min | 3 to 5 min
